For one substance, K half results are on record in paper PMC6616571.

In the data set the test system is wild-type DNA polymerase beta (human). As to the kind of experiment: EMSA. As to conditions: 10 nM DNA, 5 mM MgCl2; approximately 50% of DNA bound at 32 nM enzyme; EMSA: 50 mM Tris-HCl pH 7.5, 100 mM KCl, 5 mM MgCl2, 1 mM DTT, 10% glycerol, 100 ug/ml BSA, room temperature 5 min; 10% native PAGE at 4 C. On the technique in general: In EMSA bound probe runs differently from free probe, usually more slowly.

In turn, 1-nt gapped 34-bp DNA had a K half of 32 nM.
